Test results from patent publication US20160237122A1.

Legend:
[1] = target: HIV-1 gp120 protein (Fitzgerald Industries International Inc, USA) (HIV-1); test: dot blot: value derived from 1 pg in 1 mL of 10-fold diluted human serum
[2] = target: HIV-1 gp120 protein (Fitzgerald Industries International Inc, USA) (HIV-1); test: fusion peptide on Ni-NTA magnetic agarose beads, detected with FITC-labeled gp120 antibody, fluorescence microscopy
[3] = target: HIV-1 gp120 protein (Fitzgerald Industries International Inc, USA) (HIV-1); test: dot blot: 5 ng fusion F23 peptide on nitrocellulose, gp120 in 10-fold diluted human serum, HRP-conjugated gp120 antibody, chemiluminescence

## MIHHHHHHEMISLIAALAVIEGRCNLHFCQLRCKSLGLLGKCAGSFCACV (designed binder) [fusion F23 peptide (His6-tag, 15 amino acid linker derived from E. coli DHFR, F23)]
[1]
  detectable gp120 concentration in human blood: 10 pg/mL
[2]
  gp120 concentration detected: 10 ng/µL
[3]
  detection limit of gp120: 1 pg/mL
